Key:
[1] = target: oAβ42 Aβ42 (Homo sapiens) (UniProt P05067); conditions: cited from earlier work
C1q (Homo sapiens) = C1q (Homo sapiens) (UniProt P02745); test: ELISA; conditions: cited from earlier work
TREM2 R62H (human) = TREM2 R62H (human) (UniProt Q9NZC2); test: BLI; biotinylated TREM2 WT and variants immobilised on SA biosensors; C1q 62.5 – 1000 nM in PBS with 0.1% BSA and 0.005% Tween-20; 1:1 kinetic fits
TREM2 F74D (human) = TREM2 F74D (human) (UniProt Q9NZC2); test: as above
TREM2 R47H (human) = TREM2 R47H (human) (UniProt Q9NZC2); test: as above
TREM2 L71D (human) = TREM2 L71D (human) (UniProt Q9NZC2); test: as above
TREM2 WT (human) [2] = target: TREM2 WT (human) (UniProt Q9NZC2); test: as above
TREM2 M41D (human) = TREM2 M41D (human) (UniProt Q9NZC2); test: as above
TREM2 WT (human) [3] = target: TREM2 WT (human) (UniProt Q9NZC2); test: BLI; sequential competition: biotinylated TREM2 WT on SA biosensors, first ligand or no ligand at one concentration (500 nM apoE2, apoE4, oAβ42 or IL-34; 1000 nM C1q), buffer, then second ligand

TREM2 WT (human), sequence (Q9NZC2 19-174): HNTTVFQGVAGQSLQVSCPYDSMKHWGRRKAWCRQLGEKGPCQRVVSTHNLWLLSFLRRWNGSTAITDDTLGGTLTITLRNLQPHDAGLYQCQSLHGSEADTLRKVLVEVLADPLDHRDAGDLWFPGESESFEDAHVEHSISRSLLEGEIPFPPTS
TREM2, sequence (Q9NZC2 19-174): as above
C1q (Homo sapiens), sequence (P02745 23-245, chain 1 of 3): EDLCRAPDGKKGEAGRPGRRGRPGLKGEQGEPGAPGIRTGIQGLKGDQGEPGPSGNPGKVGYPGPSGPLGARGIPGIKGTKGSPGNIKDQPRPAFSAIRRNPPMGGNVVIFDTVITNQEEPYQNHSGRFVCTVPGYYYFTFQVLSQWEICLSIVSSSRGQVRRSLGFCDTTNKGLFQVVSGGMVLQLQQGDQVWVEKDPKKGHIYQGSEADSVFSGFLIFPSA
C1q (Homo sapiens), sequence (P02746 28-253, chain 2 of 3, further chain): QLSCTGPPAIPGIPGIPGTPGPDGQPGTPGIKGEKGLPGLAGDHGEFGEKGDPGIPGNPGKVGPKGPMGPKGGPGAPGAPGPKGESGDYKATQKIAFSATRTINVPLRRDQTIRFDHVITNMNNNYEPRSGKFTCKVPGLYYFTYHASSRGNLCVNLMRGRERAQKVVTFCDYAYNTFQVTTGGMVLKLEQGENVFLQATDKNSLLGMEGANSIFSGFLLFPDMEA
C1q (Homo sapiens), sequence (P02747 29-245, chain 3 of 3, further chain): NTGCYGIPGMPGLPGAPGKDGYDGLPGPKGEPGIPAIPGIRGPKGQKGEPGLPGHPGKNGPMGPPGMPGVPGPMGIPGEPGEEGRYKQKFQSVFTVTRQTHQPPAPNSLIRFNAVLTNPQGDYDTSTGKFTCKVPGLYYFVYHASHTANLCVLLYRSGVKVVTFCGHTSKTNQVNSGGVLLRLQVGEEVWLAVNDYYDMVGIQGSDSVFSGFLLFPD
TREM2 F74D (human), sequence (Q9NZC2 19-230 F74D): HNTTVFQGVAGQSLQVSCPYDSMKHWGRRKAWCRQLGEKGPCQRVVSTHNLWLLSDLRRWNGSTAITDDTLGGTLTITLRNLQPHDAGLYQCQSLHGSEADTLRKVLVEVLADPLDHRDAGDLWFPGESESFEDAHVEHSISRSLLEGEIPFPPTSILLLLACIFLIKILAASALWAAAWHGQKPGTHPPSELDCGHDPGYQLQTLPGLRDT
TREM2 R62H (human), sequence (Q9NZC2 19-174 R62H): as the sequence (Q9NZC2 19-174) above, with R44H counted along it
TREM2 R47H (human), sequence (Q9NZC2 19-174 R47H): as the sequence (Q9NZC2 19-174) above, with R29H counted along it
TREM2 M41D (human), sequence (Q9NZC2 19-230 M41D): as the sequence (Q9NZC2 19-230 F74D) above, with M23D, D56F counted along it
TREM2 L71D (human), sequence (Q9NZC2 19-230 L71D): as the sequence (Q9NZC2 19-230 F74D) above, with L53D, D56F counted along it

Row | Kd (TREM2 R62H (human)) [µM] | Kd (TREM2 F74D (human)) [µM] | Kd (TREM2 R47H (human)) [µM] | Kd (TREM2 L71D (human)) [µM] | Kd (TREM2 WT (human) [2]) [µM] | Kd (TREM2 M41D (human)) [µM] | percent decrease of apoE2 binding to TREM2 after pre-binding 1000 nM C1q (TREM2 WT (human) [3]) [%] | Substance | Kd [1] [µM] | Kd (C1q (Homo sapiens)) [µM]
1 |  |  |  |  |  |  |  | TREM2 (from UniProt Q9NZC2) | 0.526 | 0.00735
2 | 1.66 | 0.11 | 0.18 | 0.058 | 0.65 | 2.54 | 11.4 | complement C1q (complex) |  | 
